Where two headings read alike, the source gives them in different places. Square brackets hold non-standard residues; d marks the D form. Ends that are not written are not given here. Phe(3-F) = N[C@@H](Cc1cccc(F)c1)C(=O)O; Phe(4-F) = N[C@@H](Cc1ccc(F)cc1)C(=O)O; 1Nal = N[C@@H](Cc1cccc2ccccc12)C(=O)O; hPhe = N[C@@H](CCc1ccccc1)C(=O)O; Cha = N[C@@H](CC1CCCCC1)C(=O)O
Tests used:
Assay in all cases: cell-based or functional assay
CDK2/cyclin A = CDK2/cyclin A (UniProt P24941 1-298; P20248 1-432)
CDK4/Cyclin D1 complex = CDK4/Cyclin D1 complex (UniProt P11802 1-303; P24385 1-295)
Sequence of CDK4/Cyclin D1 complex (P11802 other isoform, or with tags, fused parts or gaps, chain 1 of 2): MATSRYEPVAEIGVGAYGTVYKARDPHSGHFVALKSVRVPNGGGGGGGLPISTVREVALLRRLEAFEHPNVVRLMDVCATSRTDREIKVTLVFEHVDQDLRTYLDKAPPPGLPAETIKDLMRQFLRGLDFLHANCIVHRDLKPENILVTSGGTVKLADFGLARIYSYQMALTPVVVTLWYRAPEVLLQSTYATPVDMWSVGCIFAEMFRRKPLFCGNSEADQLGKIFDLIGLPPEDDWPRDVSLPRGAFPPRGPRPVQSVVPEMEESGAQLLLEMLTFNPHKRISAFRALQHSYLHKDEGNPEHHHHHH
Sequence of CDK4/Cyclin D1 complex (P24385 whole entry, chain 2 of 2): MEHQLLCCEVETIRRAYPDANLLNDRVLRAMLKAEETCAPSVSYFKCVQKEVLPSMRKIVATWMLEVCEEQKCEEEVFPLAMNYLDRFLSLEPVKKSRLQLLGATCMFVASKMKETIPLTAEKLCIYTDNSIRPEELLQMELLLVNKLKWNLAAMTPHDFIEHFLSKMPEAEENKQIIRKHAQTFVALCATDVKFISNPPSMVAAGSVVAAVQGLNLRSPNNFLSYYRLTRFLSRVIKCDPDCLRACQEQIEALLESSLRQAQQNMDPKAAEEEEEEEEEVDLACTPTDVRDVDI

CDK2/Cyclin E complex [1] = biological target: T1, CDK2/Cyclin E complex (UniProt P24941 1-298; P24864 1-410)
CDK2/Cyclin E complex [2] = biological target: T1, CDK2/Cyclin E complex; remark: listed apart in the source

Row | Binder | Relative activity, Kinase Inhibition (CDK2/cyclin A kinase assay, pRb substrate, [ATP] = 100 µM) (CDK2/cyclin A) | % Inhibition, cyclin D1/CDK4 kinase (CDK4/Cyclin D1 complex) [%] | % Inhibition, cyclin E/CDK2 kinase (CDK2/Cyclin E complex [1]) [%] | also measured
1 | H-HAKRRLIW-NH2 [H-His-Ala-Lys-Arg-Arg-Leu-Ile-Trp-NH2] | 0.3 relative to H-His-Ala-Lys-Arg-Arg-Leu-Ile-Phe-NH2 (=1) | – | – | –
2 | DFYHSKRRL-NH2 [DFYHSKRRL-NH2] | – | 10 | 50 | IC50, cyclin E/CDK2 kinase, GST-pRb (CDK2/Cyclin E complex [1]): 200 µM
3 | DFYHSKRRLI-NH2 [DFYHSKRRLI-NH2] | – | 20 | 35 | –
4 | H-HAKRRLI[Phe(3-F)]-NH2 (SMILES CC[C@H](C)[C@H](NC(=O)[C@H](CC(C)C)NC(=O)[C@H](CCCNC(=N)N)NC(=O)[C@H](CCCNC(=N)N)NC(=O)[C@H](CCCCN)NC(=O)[C@H](C)NC(=O)[C@@H](N)Cc1c[nH]cn1)C(=O)N[C@@H](Cc1cccc(F)c1)C(N)=O) [H-His-Ala-Lys-Arg-Arg-Leu-Ile-mFPhe-NH2] | 0.8 relative to H-His-Ala-Lys-Arg-Arg-Leu-Ile-Phe-NH2 (=1) | – | – | –
5 | DFYHSK-NH2 [DFYHSK-NH2] | – | 10 | 45 | IC50, cyclin E/CDK2 kinase, GST-pRb (CDK2/Cyclin E complex [1]): 200 µM
6 | H-HAKRRLI[Phe(4-F)]-NH2 (SMILES CC[C@H](C)[C@H](NC(=O)[C@H](CC(C)C)NC(=O)[C@H](CCCNC(=N)N)NC(=O)[C@H](CCCNC(=N)N)NC(=O)[C@H](CCCCN)NC(=O)[C@H](C)NC(=O)[C@@H](N)Cc1c[nH]cn1)C(=O)N[C@@H](Cc1ccc(F)cc1)C(N)=O) [H-His-Ala-Lys-Arg-Arg-Leu-Ile-pFPhe-NH2] | 1 relative to H-His-Ala-Lys-Arg-Arg-Leu-Ile-Phe-NH2 (=1) | – | – | –
7 | H-HAKRRLIL-NH2 [H-His-Ala-Lys-Arg-Arg-Leu-Ile-Leu-NH2] | 0.3 relative to H-His-Ala-Lys-Arg-Arg-Leu-Ile-Phe-NH2 (=1) | – | – | –
8 | H-HAKRRLI[1Nal]-NH2 (SMILES CC[C@H](C)[C@H](NC(=O)[C@H](CC(C)C)NC(=O)[C@H](CCCNC(=N)N)NC(=O)[C@H](CCCNC(=N)N)NC(=O)[C@H](CCCCN)NC(=O)[C@H](C)NC(=O)[C@@H](N)Cc1c[nH]cn1)C(=O)N[C@@H](Cc1cccc2ccccc12)C(N)=O) [H-His-Ala-Lys-Arg-Arg-Leu-Ile-1Nap-NH2] | 0.2 relative to H-His-Ala-Lys-Arg-Arg-Leu-Ile-Phe-NH2 (=1) | – | – | –
9 | HAKRRLFG-NH2 [P21 C-terminus (S153A) LFG HAKRRLFG-NH2] | – | – | – | % Inhibition, cyclin E/CDK2 kinase (CDK2/Cyclin E complex [2]): 82%; IC50, cyclin E/CDK2 kinase (CDK2/Cyclin E complex [2]): 900 nM
10 | H-HAKRRLI[Cha]-NH2 (SMILES CC[C@H](C)[C@H](NC(=O)[C@H](CC(C)C)NC(=O)[C@H](CCCNC(=N)N)NC(=O)[C@H](CCCNC(=N)N)NC(=O)[C@H](CCCCN)NC(=O)[C@H](C)NC(=O)[C@@H](N)Cc1c[nH]cn1)C(=O)N[C@@H](CC1CCCCC1)C(N)=O) [H-His-Ala-Lys-Arg-Arg-Leu-Ile-Cha-NH2] | < 0.1 relative to H-His-Ala-Lys-Arg-Arg-Leu-Ile-Phe-NH2 (=1) | – | – | –
11 | H-HAKRRLIY-NH2 [H-His-Ala-Lys-Arg-Arg-Leu-Ile-Tyr-NH2] | 0.3 relative to H-His-Ala-Lys-Arg-Arg-Leu-Ile-Phe-NH2 (=1) | – | – | –
12 | DFYHSKRR-NH2 [DFYHSKRR-NH2] | – | 10 | 40 | –
13 | H-HAKRRLI[hPhe]-NH2 (SMILES CC[C@H](C)[C@H](NC(=O)[C@H](CC(C)C)NC(=O)[C@H](CCCNC(=N)N)NC(=O)[C@H](CCCNC(=N)N)NC(=O)[C@H](CCCCN)NC(=O)[C@H](C)NC(=O)[C@@H](N)Cc1c[nH]cn1)C(=O)N[C@@H](CCc1ccccc1)C(N)=O) [H-His-Ala-Lys-Arg-Arg-Leu-Ile-Hof-NH2] | < 0.1 relative to H-His-Ala-Lys-Arg-Arg-Leu-Ile-Phe-NH2 (=1) | – | – | –
